Measured values reported in article PMC10315065 (Journal of Innate Immunity, 2023).

Target: human glyceraldehyde-3-phosphate dehydrogenase (GAPDH) (human, UniProt P04406 1-335, fluorescent dye NT-647 (Monolith NT Protein Labeling Kit RED-NHS))
Experiment: MST

Sequence of human glyceraldehyde-3-phosphate dehydrogenase (GAPDH) (P04406 whole entry): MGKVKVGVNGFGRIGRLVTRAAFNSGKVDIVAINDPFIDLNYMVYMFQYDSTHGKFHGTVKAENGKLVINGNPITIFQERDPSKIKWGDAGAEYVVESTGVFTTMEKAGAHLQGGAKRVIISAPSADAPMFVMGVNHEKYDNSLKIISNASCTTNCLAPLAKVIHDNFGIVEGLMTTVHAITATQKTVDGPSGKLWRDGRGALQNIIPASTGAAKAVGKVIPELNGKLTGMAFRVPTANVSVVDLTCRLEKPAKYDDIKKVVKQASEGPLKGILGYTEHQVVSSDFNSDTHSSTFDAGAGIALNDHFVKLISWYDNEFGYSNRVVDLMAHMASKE

Binder: GLLRKGGEKIGEKLKKIGQKIKNFFQKLVPQPEQ [Mouse cathelicidin-related antimicrobial peptide]
- Kd: 472 nM
